Changes are numbered by the printed parent chain. Numbers in names are those of the source.
B1: G236N/S267E (antibody, human IgG1, kappa)
heavy: not shown
light: DIVMTQSPATLSLSPGERATLSCRSSKSLQNVNGNTYLYWFQQKPGQSPQLLIYRMSNLNSGVPDRFSGSGSGTEFTLTISSLEPEDFAVYYCMQHLEYPITFGAGTKLEIKRTVAAPSVFIFPPSDEQLKSGTASVVCLLNNFYPREAKVQWKVDNALQSGNSQESVTEQDSKDSTYSLSSTLTLSKADYEKHKVYACEVTHQGLSSPVTKSFNRGEC
notes: HuAM4G7 anti-CD19 IgG1 (m1) with these Fc substitutions, EU index; copies: 2 + 2
B2: G236E/S267E (antibody, human IgG1, kappa)
heavy: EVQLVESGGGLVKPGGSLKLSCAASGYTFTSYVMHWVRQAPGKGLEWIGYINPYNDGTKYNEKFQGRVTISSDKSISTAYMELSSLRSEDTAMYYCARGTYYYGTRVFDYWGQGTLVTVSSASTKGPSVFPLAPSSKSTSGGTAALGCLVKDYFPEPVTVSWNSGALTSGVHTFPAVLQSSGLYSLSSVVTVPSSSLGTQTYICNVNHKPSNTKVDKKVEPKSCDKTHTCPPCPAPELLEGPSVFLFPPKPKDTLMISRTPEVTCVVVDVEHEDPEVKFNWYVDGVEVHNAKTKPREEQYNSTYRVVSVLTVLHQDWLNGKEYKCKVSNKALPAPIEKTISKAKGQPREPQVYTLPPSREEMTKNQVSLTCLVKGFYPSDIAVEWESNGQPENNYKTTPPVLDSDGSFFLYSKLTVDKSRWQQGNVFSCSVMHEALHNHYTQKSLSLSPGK
light: B1 light
notes: as for B1
B3: G236F (antibody, human IgG1, kappa)
heavy: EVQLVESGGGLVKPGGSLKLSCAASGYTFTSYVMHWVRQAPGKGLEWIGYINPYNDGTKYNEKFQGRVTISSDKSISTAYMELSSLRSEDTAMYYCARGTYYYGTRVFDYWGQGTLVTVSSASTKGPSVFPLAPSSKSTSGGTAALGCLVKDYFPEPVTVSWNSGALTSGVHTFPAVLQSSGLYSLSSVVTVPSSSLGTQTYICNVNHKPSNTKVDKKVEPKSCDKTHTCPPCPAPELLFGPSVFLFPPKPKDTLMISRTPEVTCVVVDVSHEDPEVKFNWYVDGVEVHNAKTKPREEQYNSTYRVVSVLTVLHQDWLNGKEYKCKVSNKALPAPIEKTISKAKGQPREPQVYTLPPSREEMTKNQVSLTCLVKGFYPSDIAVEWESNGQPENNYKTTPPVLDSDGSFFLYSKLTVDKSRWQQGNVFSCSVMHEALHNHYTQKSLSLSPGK
light: B1 light
notes: HuAM4G7 anti-CD19 IgG1 (m1) with this Fc substitution, EU index; copies: 2 + 2
B4: G236P (antibody, human IgG1, kappa)
heavy: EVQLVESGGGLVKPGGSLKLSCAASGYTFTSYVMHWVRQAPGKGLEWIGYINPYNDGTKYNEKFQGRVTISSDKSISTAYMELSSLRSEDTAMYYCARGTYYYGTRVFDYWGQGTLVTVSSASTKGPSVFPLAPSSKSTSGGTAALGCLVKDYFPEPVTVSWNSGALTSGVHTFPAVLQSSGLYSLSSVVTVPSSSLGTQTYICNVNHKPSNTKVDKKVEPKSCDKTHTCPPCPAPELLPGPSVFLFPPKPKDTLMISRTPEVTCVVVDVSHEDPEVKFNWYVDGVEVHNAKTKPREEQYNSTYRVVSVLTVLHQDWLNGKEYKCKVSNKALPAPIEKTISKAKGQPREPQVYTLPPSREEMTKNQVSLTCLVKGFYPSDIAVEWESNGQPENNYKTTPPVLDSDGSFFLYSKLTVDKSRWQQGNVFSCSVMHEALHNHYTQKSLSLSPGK
light: B1 light
notes: as for B3
B5: G236R (antibody, human IgG1, kappa)
heavy: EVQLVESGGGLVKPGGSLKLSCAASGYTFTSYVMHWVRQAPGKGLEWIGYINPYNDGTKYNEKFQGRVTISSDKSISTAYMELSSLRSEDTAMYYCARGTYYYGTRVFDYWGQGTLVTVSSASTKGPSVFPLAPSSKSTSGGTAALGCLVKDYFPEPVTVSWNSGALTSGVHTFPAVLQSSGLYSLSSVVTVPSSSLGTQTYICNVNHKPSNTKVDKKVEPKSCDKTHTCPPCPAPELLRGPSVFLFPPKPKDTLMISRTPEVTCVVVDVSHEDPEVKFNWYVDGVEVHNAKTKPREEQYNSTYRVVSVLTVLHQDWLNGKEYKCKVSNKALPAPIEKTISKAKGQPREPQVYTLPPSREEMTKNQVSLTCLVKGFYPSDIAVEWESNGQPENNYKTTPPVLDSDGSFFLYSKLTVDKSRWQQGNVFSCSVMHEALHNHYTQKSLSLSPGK
light: B1 light
notes: as for B3
B6: G236V (antibody, human IgG1, kappa)
heavy: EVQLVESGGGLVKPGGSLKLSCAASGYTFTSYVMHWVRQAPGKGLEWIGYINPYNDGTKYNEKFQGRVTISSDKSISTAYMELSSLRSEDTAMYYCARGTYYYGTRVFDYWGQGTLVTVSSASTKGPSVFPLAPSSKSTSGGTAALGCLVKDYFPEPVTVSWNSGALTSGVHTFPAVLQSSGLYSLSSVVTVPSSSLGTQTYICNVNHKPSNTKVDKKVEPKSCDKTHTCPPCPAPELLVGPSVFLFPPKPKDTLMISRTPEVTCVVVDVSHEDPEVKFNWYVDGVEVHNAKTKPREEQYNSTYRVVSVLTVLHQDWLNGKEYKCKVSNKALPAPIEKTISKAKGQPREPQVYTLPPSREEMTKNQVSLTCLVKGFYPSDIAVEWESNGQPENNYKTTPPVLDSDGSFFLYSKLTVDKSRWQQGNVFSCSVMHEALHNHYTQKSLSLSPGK
light: B1 light
notes: as for B3
B7: G237E (antibody, human IgG1, kappa)
heavy: not shown
light: B1 light
notes: as for B3
B8: G237H (antibody, human IgG1, kappa)
heavy: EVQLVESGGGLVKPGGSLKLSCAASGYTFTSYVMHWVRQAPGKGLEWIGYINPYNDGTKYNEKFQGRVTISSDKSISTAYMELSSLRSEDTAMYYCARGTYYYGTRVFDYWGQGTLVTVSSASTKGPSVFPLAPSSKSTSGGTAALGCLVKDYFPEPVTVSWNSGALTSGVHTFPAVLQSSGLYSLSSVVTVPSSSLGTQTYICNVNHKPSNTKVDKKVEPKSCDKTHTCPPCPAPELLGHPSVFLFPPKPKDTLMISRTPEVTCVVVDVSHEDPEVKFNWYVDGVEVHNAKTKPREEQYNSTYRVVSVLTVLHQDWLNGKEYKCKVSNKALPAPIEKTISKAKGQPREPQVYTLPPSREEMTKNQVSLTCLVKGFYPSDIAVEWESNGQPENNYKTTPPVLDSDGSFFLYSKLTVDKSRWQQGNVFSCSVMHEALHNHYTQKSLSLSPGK
light: B1 light
notes: as for B3
B9: G237K (antibody, human IgG1, kappa)
heavy: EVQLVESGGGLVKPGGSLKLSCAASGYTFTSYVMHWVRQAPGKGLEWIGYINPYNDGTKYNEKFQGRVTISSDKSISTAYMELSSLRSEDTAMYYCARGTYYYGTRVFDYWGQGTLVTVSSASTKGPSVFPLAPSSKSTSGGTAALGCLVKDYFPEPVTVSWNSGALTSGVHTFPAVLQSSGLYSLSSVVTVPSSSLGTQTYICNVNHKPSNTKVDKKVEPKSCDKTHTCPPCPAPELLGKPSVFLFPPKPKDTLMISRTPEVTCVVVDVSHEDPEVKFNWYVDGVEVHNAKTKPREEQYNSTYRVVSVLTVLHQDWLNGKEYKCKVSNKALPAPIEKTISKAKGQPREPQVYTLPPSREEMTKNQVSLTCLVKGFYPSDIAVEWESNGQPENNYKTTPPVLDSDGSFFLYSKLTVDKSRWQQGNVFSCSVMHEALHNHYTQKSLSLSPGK
light: B1 light
notes: as for B3
B10: L234G (antibody, human IgG1, kappa)
heavy: not shown
light: B1 light
notes: as for B3
B11: L234Q (antibody, human IgG1, kappa)
heavy: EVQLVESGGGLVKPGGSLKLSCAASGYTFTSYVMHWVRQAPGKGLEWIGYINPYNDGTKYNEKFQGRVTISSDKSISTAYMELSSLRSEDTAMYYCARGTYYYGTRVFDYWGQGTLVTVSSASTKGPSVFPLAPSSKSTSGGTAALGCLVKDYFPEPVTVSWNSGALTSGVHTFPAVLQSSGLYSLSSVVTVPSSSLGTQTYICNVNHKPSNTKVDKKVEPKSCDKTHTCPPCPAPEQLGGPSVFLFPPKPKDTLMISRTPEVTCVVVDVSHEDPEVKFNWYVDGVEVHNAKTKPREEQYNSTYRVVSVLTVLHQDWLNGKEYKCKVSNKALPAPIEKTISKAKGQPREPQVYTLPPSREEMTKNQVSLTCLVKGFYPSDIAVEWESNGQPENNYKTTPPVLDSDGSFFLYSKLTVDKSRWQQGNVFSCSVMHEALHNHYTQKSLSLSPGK
light: B1 light
notes: as for B3
B12: L235R (antibody, human IgG1, kappa)
heavy: not shown
light: B1 light
notes: as for B3
B13: S267E/L328H (antibody, human IgG1, kappa)
heavy: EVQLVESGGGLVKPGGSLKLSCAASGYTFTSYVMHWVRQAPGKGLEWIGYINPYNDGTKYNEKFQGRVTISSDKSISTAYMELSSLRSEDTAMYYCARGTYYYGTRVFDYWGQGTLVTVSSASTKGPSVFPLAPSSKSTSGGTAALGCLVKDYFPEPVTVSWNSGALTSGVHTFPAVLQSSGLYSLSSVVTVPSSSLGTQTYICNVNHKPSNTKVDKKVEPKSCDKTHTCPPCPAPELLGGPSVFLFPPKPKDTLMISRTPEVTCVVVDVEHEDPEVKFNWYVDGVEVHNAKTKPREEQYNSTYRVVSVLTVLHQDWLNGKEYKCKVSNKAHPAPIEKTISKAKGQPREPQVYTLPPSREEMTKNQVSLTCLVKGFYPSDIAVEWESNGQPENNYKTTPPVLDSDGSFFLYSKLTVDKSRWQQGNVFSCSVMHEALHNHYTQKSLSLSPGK
light: B1 light
notes: as for B1
B14: S267E/N325L (antibody, human IgG1, kappa)
heavy: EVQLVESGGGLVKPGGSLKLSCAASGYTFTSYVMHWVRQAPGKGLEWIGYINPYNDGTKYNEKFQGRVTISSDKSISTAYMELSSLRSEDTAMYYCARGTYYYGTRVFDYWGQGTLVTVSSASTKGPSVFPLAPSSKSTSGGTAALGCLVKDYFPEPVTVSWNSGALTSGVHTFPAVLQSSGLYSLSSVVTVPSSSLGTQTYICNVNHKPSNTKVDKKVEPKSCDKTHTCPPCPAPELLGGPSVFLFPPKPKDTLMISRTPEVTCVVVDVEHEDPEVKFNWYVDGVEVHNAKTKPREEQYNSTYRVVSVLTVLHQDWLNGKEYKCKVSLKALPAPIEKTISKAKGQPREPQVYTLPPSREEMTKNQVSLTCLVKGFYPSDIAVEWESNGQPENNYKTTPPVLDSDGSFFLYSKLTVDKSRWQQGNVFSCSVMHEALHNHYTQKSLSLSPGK
light: B1 light
notes: as for B1

The binders below were run against T1, human FcγRIIb receptor protein (R&D Systems) (human, UniProt P31994 46-217) (assay: SPR).
T1 construct: Bought protein injected over captured antibody in Biacore; also called CD32b
T1 sequence (looked up): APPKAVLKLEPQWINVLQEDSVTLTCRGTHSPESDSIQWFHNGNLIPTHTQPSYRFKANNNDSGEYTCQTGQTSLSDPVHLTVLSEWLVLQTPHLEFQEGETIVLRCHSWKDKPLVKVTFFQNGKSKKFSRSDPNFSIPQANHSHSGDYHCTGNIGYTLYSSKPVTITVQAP
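Wherever Fold vs WT IgG1 (off-rate) is given: fold improvement over WT IgG1 so higher means slower dissociation than WT.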

| Binder | Fold vs WT IgG1 [fold] | Kd [µM] | binding result |
| --- | --- | --- | --- |
| B1 | 19.8 | 0.0742 |  |
| B2 | 11.4 | 0.129 |  |
| B3 | 0.0147 | 100 |  |
| B4 | 0.147 | 10 |  |
| B5 | 0.0147 | 100 |  |
| B6 | 0.0147 | 100 |  |
| B7 | 0.0147 | 100 |  |
| B8 |  |  | no binding |
| B9 | 0.0147 | 100 |  |
| B10 | 0.147 | 10 |  |
| B11 | 0.147 | 10 |  |
| B12 | 5.58 | 0.263 |  |
| B13 | 5.17 | 0.284 |  |
| B14 | 31.5 | 0.0466 |  |

What follows are binders tested against T2, human FcγRI receptor protein (R&D Systems) (human, UniProt P12314 16-288) (assay: SPR).
T2 construct: also called soluble FcγRI; solFcγRI

| Binder | Fold vs WT IgG1 [fold] | Kd [µM] |
| --- | --- | --- |
| B1 | 0.0355 | 0.00927 |

What follows are binders tested against T3, human FcγRIIa (131R), His- and GST-tagged (human, UniProt P12318 34-217) (assay: SPR).
T3 construct: Expressed in HEK293T cells, purified by nickel chromatography; also called R131 FcγRIIa; not shown: 6xHis and GST tags of the pTT5 vector
T3 sequence (looked up): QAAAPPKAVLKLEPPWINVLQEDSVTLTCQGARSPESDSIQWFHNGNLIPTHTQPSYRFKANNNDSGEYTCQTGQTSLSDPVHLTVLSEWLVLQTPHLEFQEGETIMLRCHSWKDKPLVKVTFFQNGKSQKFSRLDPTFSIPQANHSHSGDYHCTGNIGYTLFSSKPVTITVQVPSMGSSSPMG

| Binder | Fold vs WT IgG1 [fold] | Kd [µM] | binding result |
| --- | --- | --- | --- |
| B1 | 3.27 | 0.263 |  |
| B2 | 36.5 | 0.0235 |  |
| B3 | 0.00859 | 100 |  |
| B4 | 0.0859 | 10 |  |
| B5 | 0.00859 | 100 |  |
| B6 | 0.106 | 8.08 |  |
| B7 | 0.00859 | 100 |  |
| B8 |  |  | no binding |
| B9 | 0.00859 | 100 |  |
| B10 | 0.0859 | 10 |  |
| B11 | 0.0372 | 23.1 |  |
| B12 | 1.02 | 0.838 |  |
| B13 | 4.64 | 0.185 |  |
| B14 | 41.5 | 0.0207 |  |

What follows are binders tested against T4, human FcγRIIa (131H), His- and GST-tagged (human, UniProt P12318 34-217) (assay: SPR).
T4 construct: also called H131 FcγRIIa; HIIa; not shown: 6xHis and GST tags of the pTT5 vector
T4 sequence (looked up): T3 sequence (looked up) with R134H

| Binder | binding result |
| --- | --- |
| B1 | no binding |

Each binder was assayed against T5, human FcγRIIIa (158V), His- and GST-tagged (human, UniProt P08637 17-208) (assay: SPR).
T5 construct: also called V158 FcγRIIIa; VIIIa; not shown: 6xHis and GST tags of the pTT5 vector
T5 sequence (P08637 17-208 F176V): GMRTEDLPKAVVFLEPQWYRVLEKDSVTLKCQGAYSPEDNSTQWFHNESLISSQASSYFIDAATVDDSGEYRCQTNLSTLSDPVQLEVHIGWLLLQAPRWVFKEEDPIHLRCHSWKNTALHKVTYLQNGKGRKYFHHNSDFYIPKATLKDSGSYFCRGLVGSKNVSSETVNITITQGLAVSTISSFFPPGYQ

| Binder | binding result |
| --- | --- |
| B1 | no binding |

The binders below were run against T6, mFcγRIIb (Mus musculus, UniProt P08101) (assay: SPR).
T6 construct: extracellular region, C-terminal His- and GST-tag; also called mouse FcγRII
T6 sequence (receptor extracellular region, looked up): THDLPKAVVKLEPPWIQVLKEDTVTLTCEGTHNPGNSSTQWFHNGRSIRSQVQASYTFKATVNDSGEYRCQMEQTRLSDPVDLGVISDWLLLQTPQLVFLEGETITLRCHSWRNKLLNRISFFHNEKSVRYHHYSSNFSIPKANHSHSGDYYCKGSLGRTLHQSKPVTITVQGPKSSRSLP

| Binder | Fold vs WT IgG1 (off-rate) [fold] |
| --- | --- |
| B13 | 1.11 |

Molecular target: T7, mFcγRIV
T7 construct: also called mouse FcγRIV; not shown: C-terminal His and GST tags (named only on our card)
T7 chain: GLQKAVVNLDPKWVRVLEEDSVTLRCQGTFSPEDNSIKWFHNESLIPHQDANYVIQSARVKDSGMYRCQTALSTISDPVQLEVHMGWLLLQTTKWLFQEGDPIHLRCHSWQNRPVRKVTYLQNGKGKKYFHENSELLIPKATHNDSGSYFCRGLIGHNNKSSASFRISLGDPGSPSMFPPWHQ
Experiment: SPR

| Binder | Fold vs WT IgG1 (off-rate) [fold] |
| --- | --- |
| B12 | 0.347 |
| B14 | 0.24 |

What follows are binders tested against T8, cynoFcγRIIb (Macaca fascicularis, UniProt A0A140HDP4) (assay: SPR).
T8 construct: extracellular region, C-terminal His- and GST-tag; also called cynomolgus monkey FcγRIIb
T8 sequence (receptor extracellular region): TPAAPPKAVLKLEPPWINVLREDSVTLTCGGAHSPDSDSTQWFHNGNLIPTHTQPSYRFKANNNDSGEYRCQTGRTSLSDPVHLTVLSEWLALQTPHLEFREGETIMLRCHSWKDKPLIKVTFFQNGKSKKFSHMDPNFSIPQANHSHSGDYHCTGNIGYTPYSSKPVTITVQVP

| Binder | Fold vs WT IgG1 (off-rate) [fold] |
| --- | --- |
| B1 | 0.587 |
| B6 | 0.703 |
| B13 | 0.42 |

The binders below were run against T9, cynoFcγRIIIa (Macaca fascicularis, UniProt Q8SPW2) (assay: SPR).
T9 construct: extracellular region, C-terminal His- and GST-tag; also called cynomolgus monkey FcγRIIIa
T9 sequence (Q8SPW2 17-208): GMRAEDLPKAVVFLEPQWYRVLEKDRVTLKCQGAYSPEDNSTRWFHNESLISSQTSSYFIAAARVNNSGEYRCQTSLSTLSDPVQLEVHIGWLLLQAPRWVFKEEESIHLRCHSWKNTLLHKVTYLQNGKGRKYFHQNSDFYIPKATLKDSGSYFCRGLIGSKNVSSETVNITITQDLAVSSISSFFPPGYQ

| Binder | Fold vs WT IgG1 (off-rate) [fold] |
| --- | --- |
| B2 | 0.327 |
| B3 | 0.138 |
| B10 | 0.113 |
| B11 | 0.379 |

What follows are binders tested against T6, mFcγRIIb (assay: SPR, off-rate).
Method: (§1) Variants were screened for receptor affinity using Biacore™ technology, also referred to as Biacore herein, a surface plasmon resonance (SPR) based technology for studying biomolecular interactions in real time. SPR measurements were performed using a Biacore 3000 instrument (Biacore, Piscataway, N.J.). A protein A/G (Pierce Biotechnology) CM5 biosensor chip (Biacore) was generated using a standard primary amine coupling protocol. All measurements were performed using HBS-EP buffer (10 mM HEPES pH 7.4, 0.15 M NaCl, 3 mM EDTA, 0.005% vol/vol surfactant P20, Biacore). Antibodies at 20 nM or 50 nM in HBS-EP buffer were immobilized on the protein A/G surface and FcγRs were injected. After each cycle, the surface was regenerated by injecting glycine buffer (10 mM, pH 1.5). Data were processed by zeroing time and response before the injection of FcγR and by subtracting appropriate nonspecific signals (response of reference channel and injection of running buffer). Kinetic analyses were performed by global fitting of binding data with a 1:1 Langmuir binding model using BIAevaluation software (Biacore).
(§2) Variant antibodies were tested for their affinity to mouse or cynologous monkey FcγRs using Biacore SPR as described above. Specifically, antibodies were first immobilized on a protein A/G chip to high density, and then followed by injections of the extracellular domain of the mouse or cynologous monkey FcγR of interest. Both association and dissociation phases were tracked in real time using the Biacore technology.

| Binder | binding result |
| --- | --- |
| B1 | no binding |
| B2 | no binding |
| B3 | no binding |
| B4 | no binding |
| B5 | no binding |
| B6 | no binding |
| B7 | no binding |
| B8 | no binding |
| B9 | no binding |
| B10 | no binding |
| B11 | no binding |
| B12 | no binding |
| B14 | no binding |

Molecular target: T7, mFcγRIV
Experiment: SPR, off-rate
Method: as §1, §2

| Binder | binding result |
| --- | --- |
| B1 | no binding |
| B2 | no binding |
| B3 | no binding |
| B4 | no binding |
| B5 | no binding |
| B6 | no binding |
| B7 | no binding |
| B8 | no binding |
| B9 | no binding |
| B10 | no binding |
| B11 | no binding |
| B13 | no binding |

Each binder was assayed against T8, cynoFcγRIIb (assay: SPR, off-rate).
Method: as §1, §2

| Binder | binding result |
| --- | --- |
| B2 | no binding |
| B3 | no binding |
| B4 | no binding |
| B5 | no binding |
| B7 | no binding |
| B8 | no binding |
| B9 | no binding |
| B10 | no binding |
| B11 | no binding |
| B12 | no binding |
| B14 | no binding |

Each binder was assayed against T9, cynoFcγRIIIa (assay: SPR, off-rate).
Method: as §1, §2

| Binder | binding result |
| --- | --- |
| B1 | no binding |
| B4 | no binding |
| B5 | no binding |
| B6 | no binding |
| B7 | no binding |
| B8 | no binding |
| B9 | no binding |
| B12 | no binding |
| B13 | no binding |
| B14 | no binding |

Source: patent US20130315910A1 (Xencor, published 2013)
